US20030203372A1, “Analysis method” (priority 2000, published 2003)

B1: p1F6 (nucleic acid, listed as Homo Sapiens)
DNA: GTCCATCTTGCTGCTGTCCACTTTGGGTTCCATCTTGGGCTCCATCTTGCTCTCACGATTAAAAGCTTCTTTCCTGCTTTCCCCATTCCGACCATCATTTGCACCCCGGTTCTCCCCATGCCGGCCTGCGCTTCCTCCATGTCTGTTCTCCCCGTGCCGATGGCCATCAGTATGACGGCTGCTGCTTTCTGGATGGCGGTATCCATCTCCATGGCGACCACCATCTCCGTGACGTGGACTATCGCTATGCCGATTGCCAGTCTCTCCGTGACTGTGACGGCTGCTGCCCCGGTTCTCAGTATATCTCTCTCTTTTCCCGTTGCTGCCCCCAGTCCCTTCTCGGCTGTTATTCCCTGAAGCTGTGTTGTTGACTCCTTGGGCTCCGGCAGACGGGTAGGTCACAGGGGCACCACTGATGTTGCCAGTATTGCCAAAGCCTGGGATGCCCTTGGCGGCACTGGTGACGGGGCTGTCAGGACTGTTATGGCCCTGTTGTGCTGAGTTAGTTGGAACAGAATTCAAGCTCCCTGCACTAGTCCACCTGCCCCACTGCTTCTTCGCTTCTCTCTTGGAAAGTCCAGTCTCTCCTCGGCTTGCAATGGACCCCAACTGCTCCTGCGCCGCTGGTGTCTCCTGCACCTGCGCTGGTTCCTGCAAGTGCAAAGAGTGCAAATGCACCTCCTGCAAGAAGAGCTGCTGCTCCTGCTGCCCCGTGGGCTGTAGCAAGTGTGCCCAGGGCTGTGTTTGCAAAGGGGCGTCAGAGAAGTGCAGCTGCTGCGACTGATGCCAGGACAACCTTTCTCCCAGATGTAAACAGAGAGACATGTACAAACCTGGATTTTTTTTTTATACCACCTTGACCCATTTGCTACATTCCTTTTCCTGTGAAATATGTGAGTGATAATTAAACACTTTAGACCTGAAAAAAAAAAAAAAAAAAAAAAAAAAAAAAAAAAAAAAAAAAAAAAAAAAAAAAAAAAAAAAAAAAAAAAAAAAAAAAAAAAAAAAAAAAAAAAAAAAAAAAAAAAAAAAAAAAAAAAAAAAAAAAAAAAAAAAAAAAAAAAAAAAAAA
B2: p1F17 (nucleic acid, listed as Homo Sapiens)
DNA: CAGCCTTATAAGCTGAGGGAGTGGAGAGGCCCGGGGCCAGGAAAGCAGAGACAGACAAAGCGTTAGGAGAAGAAGAGAGGCAGGGAAGACAAGCCAGGCACGATGGCCACCTTCCCACCAGCAACCAGCGCCCCCCAGCAGCCCCCAGGCCCGGAGGACGAGGACTCCAGCCTGGATGAATCTGACCTCTATAGCCTGGCCCATTCCTACCTCGGAGGTGGAGGCCGGAAAGGTCGCACCAAGAGAGAAGCTGCTGCCAACACCAACCGCCCCAGCCCTGGCGGGCACGAGAGGAAACTGGTGACCAAGCTGCAGAATTCAGAGAGGAAGAAGCGAGGGGCACGGCGCTGAGACAGAGCTGGAGATGAGGCCAGACCATGGACACTACACCCAGCAATAGAGACGGGACTGCGGAGGAAGGAGGACCCAGGACAGGATCCAGGCCGGCTTGCCACACCCCCCACCCCTAGGACTTATTCCCGCTGACTGAGTCTCTGAGGGGCTACCAGGAAAGCGCCTCCAACCCTAGCAAAAGTGCAAGATGGGGAGTGAGAGGCTGGGAATGGAGGGGCAGAGCCAGGAAGATCCCCCAGAAAAGAAAGCTACAGAAGAAACTGGGGCTCCTCCAGGGTGGCAGCAACAATAAATAGACACGCACGGCAGCCACAGCTTGGGTGTGTGTTCATCCTTGTTAAAAAAAAAAAAAAAAAAAAAAAAAA
B3: p1K8 (nucleic acid, listed as Homo Sapiens)
DNA: AGCACAGGACACAGCTGGGTTCTGAAGCTTCTGAGTTCTGCAGCCTCACCTCTGAGAAAACCTCTTTTCCACCAATACCATGAAGCTCTGCGTGACTGTCCTGTCTCTCCTCATGCTAGTAGCTGCCTTCTGCTCTCCAGCGCTCTCAGCACCAATGGGCTCAGACCCTCCCACCGCCTGCTGCTTTTCTTACACCGCGAGGAAGCTTCCTCGCAACTTTGTGGTAGATTACTATGAGACCAGCAGCCTCTGCTCCCAGCCAGCTGTGGTATTCCAAACCAAAAGAAGCAAGCAAGTCTGTGCTGATCCCAGTGAGACCTGGGTCCAGGAGTACGTGTATGACCTGGAACTGAACTGAGCTGCTCAGAGACAGGAAGTCTTCAGGGAAGGTCACCTGAGCCCGGATGCTTCTCCATGAGACACATCTCCTCCATACTCAGGACTCCTCTCCGCAGTTCCTGTCCCTTCTCTTAATTTAATCTTTTTTATGTGCCGTGTTATTGTATTAGGTGTCATTTCCATTATTTATATTAGTTTAGCCAAAGGATAAGTGTCCCCTATGGGGATGGTCCACTGTCACTGTTTCTCTGCTGTTGCAAATACATGGATAACACATTTGATTCTGTGTGTTTTCATAATAAAACTTTAAAATAAAATGCAGACAGTT

Tests used:
[1] = test system: primary human cell cultures (11 cell types); assay: Custom gene array, 11 human cell types in normoxia or hypoxia for 6 hr and 18 hr; type: cell-based; details: hypoxia/normoxia induction ratio; 18 hr monocyte
Procedure, shortened: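 Values are each gene's expression relative to its median over all cell types and conditions, after per-array normalisation to control genes and merging of replicate arrays. Cells were 11 human types, mostly unmodified primary cultures, kept in normoxia or exposed to hypoxia for 6 hr or 18 hr.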

[2] = test system: human macrophages; assay: Custom gene array, macrophages with no cytokines, IL-10 or LPS + IFN, in normoxia and hypoxia; type: cell-based; details: Table 15, referenced to the median value of that gene throughout all 6 conditions; for mRNA EXPRESSION (experimental condition) #1: #1 no cytokines/normoxia; for mRNA EXPRESSION (experimental condition) #2: #2 no cytokines/hypoxia; for mRNA EXPRESSION (experimental condition) #3: #3 IL-10/normoxia; for mRNA EXPRESSION (experimental condition) #4: #4 IL-10/hypoxia; for mRNA EXPRESSION (experimental condition) #5: #5 LPS/IFN/normoxia; for mRNA EXPRESSION (experimental condition) #6: #6 LPS/IFN/hypoxia
Experimental: Macrophages were derived and cultured as described elsewhere in the specification. A total of 6 experimental conditions were analysed, as shown below. Where cells were treated with cytokines or hypoxia (0.1% oxygen), this was for 6 hr. Lipopolysaccharide (LPS) (from E.coli 026:B6; Sigma), gamma Interferon (IFN) and Interleukin-10 (IL-10) were all used at a final concentration of 100 ng/ml. The effect of gamma Interferon and Lipopolysaccharide is to activate macrophages, with a Th1 biased phenotype, as found in many inflammatory conditions. Interleukin-10 is a Th2 cytokine and de-activates macrophages, and suppresses their effector functions.

[3] = test system: human breast and ovary tumors; assay: Custom gene array, breast and ovary tumors versus normal adjacent tissue; details: for gene expression level on custom gene array, Breast nor H / gene expression level on custom gene array, Breast nor K / gene expression level on custom gene array, Ovary nor E / gene expression level on custom gene array, Ovary nor F / gene expression level on custom gene array, Ovary nor G: normal adjacent tissue; for gene expression level on custom gene array, Breast nor H / gene expression level on custom gene array, Breast tum H: patient H; for gene expression level on custom gene array, Breast nor K / gene expression level on custom gene array, Breast tum K: patient K; for gene expression level on custom gene array, Breast tum H / gene expression level on custom gene array, Breast tum K / gene expression level on custom gene array, Ovary tum E / gene expression level on custom gene array, Ovary tum F / gene expression level on custom gene array, Ovary tum G: tumor tissue; for gene expression level on custom gene array, Ovary nor E / gene expression level on custom gene array, Ovary tum E: patient E; for gene expression level on custom gene array, Ovary nor F / gene expression level on custom gene array, Ovary tum F: patient F; for gene expression level on custom gene array, Ovary nor G / gene expression level on custom gene array, Ovary tum G: patient G
Description: A study has been performed to examine the expression of these genes in a selection of breast and ovary tumors, comparing expression with normal adjacent tissue from the same patient. There is expected to be a large degree of variation between different patients, and the study here contains only 5 patients with a range of diagnoses.
Patients are designated as Letters:
E: person. Diagnosis: ovarian adenocarcinoma. Normal ovarian tissue derived from an age-matched separate individual.
: person. Diagnosis: poorly differentiated adenocarcinoma. Normal ovarian tissue derived from the same individual.
G: person. Diagnosis: moderately-differentiated adenocarcinoma. Normal ovarian tissue derived from the same individual.
H: person. Diagnosis: invasive ductal carcinoma. Normnal breast tissue derived from the same individual.
K: person. Diagnosis: invasive ductal carcinoma. Normal breast tissue derived from the same individual.
Data normalisation was done per-chip to correct for differences in labelling and hybridization efficiency. Per-gene normalisation was done such that the expression values of each gene are relative to the median value of that gene throughout the series of samples. By comparing the expression values under normal (nor) and tumor (turn) for a single patient, differences in expression between the normal and malignant tissue of that patient can be inferred.

Row | Molecule | mRNA EXPRESSION (experimental condition) #1 [2] | mRNA EXPRESSION (experimental condition) #2 [2] | mRNA EXPRESSION (experimental condition) #3 [2] | mRNA EXPRESSION (experimental condition) #4 [2] | mRNA EXPRESSION (experimental condition) #5 [2] | mRNA EXPRESSION (experimental condition) #6 [2] | gene expression level on custom gene array, Breast nor H ([3]; Table 19) | gene expression level on custom gene array, Breast nor K ([3]; Table 19) | gene expression level on custom gene array, Breast tum H ([3]; Table 19) | gene expression level on custom gene array, Breast tum K ([3]; Table 19) | gene expression level on custom gene array, Ovary nor E ([3]; Table 19) | gene expression level on custom gene array, Ovary nor F ([3]; Table 19) | gene expression level on custom gene array, Ovary nor G ([3]; Table 19) | gene expression level on custom gene array, Ovary tum E ([3]; Table 19) | gene expression level on custom gene array, Ovary tum F ([3]; Table 19) | gene expression level on custom gene array, Ovary tum G ([3]; Table 19) | also measured
1 | B1 | 0.44 | 1.08 | 0.47 | 1.06 | 1.11 | 2.47 |  |  |  |  |  |  |  |  |  |  | HIGHEST FOLD CHANGE IN HYPOXIA (hr hypoxia + cell type) [1]: 67.4 (18 hr monocyte) fold
2 | B2 | 0.26 | 1.78 | 0.16 | 0.88 | 1.16 | 2.59 | 1.00 | 0.92 | 0.97 | 1.33 | 1.18 | 1.27 | 0.55 | 0.17 | 1.47 | 1.79 | gene expression level on custom gene array, Breast nor H ([3]; Table 18): 1.00; gene expression level on custom gene array, Breast nor K ([3]; Table 18): 0.92; gene expression level on custom gene array, Breast tum H ([3]; Table 18): 0.97; gene expression level on custom gene array, Breast tum K ([3]; Table 18): 1.33; gene expression level on custom gene array, Ovary nor E ([3]; Table 18): 1.18; gene expression level on custom gene array, Ovary nor F ([3]; Table 18): 1.27; gene expression level on custom gene array, Ovary nor G ([3]; Table 18): 0.55; gene expression level on custom gene array, Ovary tum E ([3]; Table 18): 0.17; gene expression level on custom gene array, Ovary tum F ([3]; Table 18): 1.47; gene expression level on custom gene array, Ovary tum G ([3]; Table 18): 1.79
3 | B3 | 0.82 | 0.40 | 1.15 | 0.38 | 91.4 | 68.4 | 1.94 | 1.75 | 0.68 | 1.62 | 1.00 | 2.48 | 1.94 | 0.56 | 2.29 | 0.54 | 
